In patent CN116355095A (SHANGHAI L&L VISION BIOPHARMACEUTICALS CO LTD, dated 2023):
Several values for one entry are separate records, joined by “and”; a condition that tells them apart may be missing. Equal values may be shown once.

Tests used:
CHO-K1-T1001细胞表达的人TIGIT [1] = molecular target: T1, CHO-K1-T1001细胞表达的人TIGIT (human, UniProt Q495A1 22-244); assay: cell ELISA on fixed hTIGIT+ CHO-K1 cells
T1 construct: whole, on cells; also called hTIGIT+细胞; CHO-K1 TIGIT+细胞系
T1 sequence (looked up): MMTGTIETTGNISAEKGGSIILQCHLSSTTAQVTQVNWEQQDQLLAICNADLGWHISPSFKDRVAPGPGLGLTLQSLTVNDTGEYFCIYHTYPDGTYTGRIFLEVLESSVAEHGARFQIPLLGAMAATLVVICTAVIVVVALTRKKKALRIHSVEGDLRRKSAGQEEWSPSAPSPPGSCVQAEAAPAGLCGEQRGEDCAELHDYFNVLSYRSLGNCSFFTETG

人TIGIT-hFc [2] = molecular target: T2, 人TIGIT-hFc (human, UniProt Q495A1 22-141; P01857 99-330 = IgG part, limits assumed); assay: blocking ELISA: Bio-CD155 on coated TIGIT-hFc; reference Ref1
T2 construct: extracellular domain;domain: IgG1 Fc区域; also called hTIGIT

人TIGIT-hFc [3] = molecular target: T2, 人TIGIT-hFc; assay: blocking ELISA: Bio-CD155 on coated TIGIT-hFc
CHO-K1-T1001细胞表达的人TIGIT [4] = molecular target: T1, CHO-K1-T1001细胞表达的人TIGIT; assay: cell ELISA on fixed hTIGIT+ CHO-K1 cells; reference Ref1
[5] = molecular target: T3, 人TIGIT重组蛋白 (hTIGIT; TIGIT-hFc 或 TIGIT-his) (human, UniProt Q495A1 22-141); assay: ELISA on coated antigen
T3 construct: extracellular domain; not shown: C-terminal tag (-his, -hFc or -mFc)
T3 sequence (looked up): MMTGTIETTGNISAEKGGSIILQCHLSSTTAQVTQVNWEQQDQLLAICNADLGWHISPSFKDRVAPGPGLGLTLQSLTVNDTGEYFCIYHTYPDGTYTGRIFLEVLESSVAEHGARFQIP

LT023 (TIGIT/his) = molecular target: T4, LT023 (TIGIT/his) (human, UniProt Q495A1 22-141); assay: double sandwich ELISA: coated TIGIT/his, detection with PD-L1/mFc (Example 6), used on serum samples
T4 construct: extracellular domain; Made in-house
T4 sequence: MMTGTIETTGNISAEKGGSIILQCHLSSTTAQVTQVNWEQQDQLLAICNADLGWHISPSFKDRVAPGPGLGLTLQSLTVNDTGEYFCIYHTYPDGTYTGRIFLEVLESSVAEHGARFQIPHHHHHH

人PD-1(hFc/his tag) = molecular target: T5, 人PD-1(hFc/his tag) (human, UniProt Q15116 25-170); assay: ELISA on coated antigen
T5 construct: extracellular domain; not shown: C-terminal tag (hFc or his)
T5 sequence (Q15116 25-170): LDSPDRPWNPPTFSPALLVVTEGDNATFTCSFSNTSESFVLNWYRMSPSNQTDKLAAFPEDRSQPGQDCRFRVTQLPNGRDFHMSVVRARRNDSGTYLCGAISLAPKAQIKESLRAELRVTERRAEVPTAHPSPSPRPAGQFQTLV

[6] = molecular target: T3, 人TIGIT重组蛋白 (hTIGIT; TIGIT-hFc 或 …); assay: ELISA on coated hTIGIT
人TIGIT-hFc [7] = molecular target: T2, 人TIGIT-hFc; assay: blocking ELISA: Bio-CD155 on coated TIGIT-hFc; reference Ref2
恒河猴TIGIT-mFc [8] = molecular target: T6, 恒河猴TIGIT-mFc (rhesus monkey; mouse, UniProt A0A5F8AKQ5 22-142; P01863 98-330 = IgG part); assay: ELISA on coated RhTIGIT-mFc; reference Ref2
T6 construct: also called RhTIGIT-mFc; RhTIGIT
T6 sequence (P01863 other isoform, or with tags, fused parts or gaps): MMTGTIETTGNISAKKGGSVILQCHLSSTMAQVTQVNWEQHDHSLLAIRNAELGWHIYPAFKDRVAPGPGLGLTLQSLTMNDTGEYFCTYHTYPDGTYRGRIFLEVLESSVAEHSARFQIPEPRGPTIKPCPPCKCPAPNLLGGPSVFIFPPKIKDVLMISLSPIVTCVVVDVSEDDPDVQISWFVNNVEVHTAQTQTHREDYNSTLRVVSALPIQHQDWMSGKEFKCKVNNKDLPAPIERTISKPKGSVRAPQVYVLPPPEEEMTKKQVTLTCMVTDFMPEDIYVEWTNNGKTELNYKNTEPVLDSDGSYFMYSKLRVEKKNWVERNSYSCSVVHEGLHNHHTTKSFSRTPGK

恒河猴TIGIT-mFc [9] = molecular target: T6, 恒河猴TIGIT-mFc; assay: ELISA on coated RhTIGIT-mFc
[10] = molecular target: T3, 人TIGIT重组蛋白 (hTIGIT; TIGIT-hFc 或 …); assay: ELISA on coated hTIGIT; reference Ref2
CHO-K1-T1001细胞表达的人TIGIT [11] = molecular target: T1, CHO-K1-T1001细胞表达的人TIGIT; assay: cell ELISA on fixed hTIGIT+ CHO-K1 cells; reference Ref2
恒河猴TIGIT-mFc [12] = molecular target: T6, 恒河猴TIGIT-mFc; assay: ELISA on coated RhTIGIT-mFc; reference Ref1
小鼠TIGIT-his = molecular target: T7, 小鼠TIGIT-his (mouse, UniProt P86176 29-148, limits assumed); assay: ELISA on coated antigen (Example 3)
T7 construct: Bought reagent; also called mouse TIGIT-his; muTIGIT-his
T7 sequence: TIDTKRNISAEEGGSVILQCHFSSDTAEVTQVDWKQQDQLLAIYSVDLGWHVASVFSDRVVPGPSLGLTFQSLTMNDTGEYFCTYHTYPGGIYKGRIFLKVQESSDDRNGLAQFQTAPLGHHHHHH

B1: 人源化抗体mab22-h6 (antibody, human IgG1, kappa)
heavy: not shown
light: DIVMTQSPLSLPVTPGEPASISCRSSQSIVHNSGNTYLEWYLQKPGQSPKLLIYKVSNRFSGVPDRFSGSGSGTDFTLKISRVEAEDVGVYYCFQFSHVPRTFGGGTKVEIKRTVAAPSVFIFPPSDEQLKSGTASVVCLLNNFYPREAKVQWKVDNALQSGNSQESVTEQDSKDSTYSLSSTLTLSKADYEKHKVYACEVTHQGLSSPVTKSFNRGEC
notes: hIgG1, kappa
EC50 (CHO-K1-T1001细胞表达的人TIGIT [1]): 0.0133 nM
IC50 ratio to Ref1 (人TIGIT-hFc [2]): 0.44 fold
IC50 (人TIGIT-hFc [3]): 1.44 nM
EC50 ratio to Ref1 (CHO-K1-T1001细胞表达的人TIGIT [4]): 0.5 fold

B2: 双特异抗体LB621 (bispecific antibody)
heavy: not shown
light: DIVMTQSPLSLPVTPGEPASISCRSSQSIVHNSGNTYLEWYLQKPGQSPKLLIYKVSNRFSGVPDRFSGSGSGTDFTLKISRVEAEDVGVYYCFQFSHVPRTFGGGTKVEIKRTVAAPSVFIFPPSDEQLKSGTASVVCLLNNFYPREAKVQWKVDNALQSGNSQESVTEQDSKDSTYSLSSTLTLSKADYEKHKVYACEVTHQGLSSPVTKSFNRGEC
notes: Whole mab22-h6 antibody with an anti-PD-L1 (Atezo) scFv joined to its heavy chain; the printed heavy chain carries the scFv at the C-terminus with the last K changed to A
binding result [5]: binds
binding result (LT023 (TIGIT/his)): binds

B3: 双特异抗体LB615 (bispecific antibody)
heavy: not shown
light: DIVMTQSPLSLPVTPGEPASISCRSSQSIVHNSGNTYLEWYLQKPGQSPKLLIYKVSNRFSGVPDRFSGSGSGTDFTLKISRVEAEDVGVYYCFQFSHVPRTFGGGTKVEIKRTVAAPSVFIFPPSDEQLKSGTASVVCLLNNFYPREAKVQWKVDNALQSGNSQESVTEQDSKDSTYSLSSTLTLSKADYEKHKVYACEVTHQGLSSPVTKSFNRGEC
binding result [5]: binds

B4: 双特异抗体LB610 (bispecific antibody, human IgG1, kappa)
heavy: not shown
light: DIVMTQSPLSLPVTPGEPASISCRSSQSIVHNSGNTYLEWYLQKPGQSPKLLIYKVSNRFSGVPDRFSGSGSGTDFTLKISRVEAEDVGVYYCFQFSHVPRTFGGGTKVEIKRTVAAPSVFIFPPSDEQLKSGTASVVCLLNNFYPREAKVQWKVDNALQSGNSQESVTEQDSKDSTYSLSSTLTLSKADYEKHKVYACEVTHQGLSSPVTKSFNRGEC
binding result (人PD-1(hFc/his tag)): binds
binding result [5]: binds

B5: 人源化抗体mab22-h1 (antibody, human IgG1, kappa, V domains shown)
VH: EVQLVESGGGLVQPGGSLRLSCAASGFTFSSYTMSWVRQAPGKGLEWVSEISSSGGSTYYPDTVKGRFTISRDNSKNTLYLQMNSLRAEDTAVYYCARPGLGAWFAYWGQGTLVTVSS
VL: DIVMTQSPLSLPVTPGEPASISCRSSQSIVHNSGNTYLEWYLQKPGQSPQLLIYKVSNRFSGVPDRFSGSGSGTDFTLKISRVEAEDVGVYYCFQFSHVPRTFGGGTKVEIKR
notes: hIgG1, kappa
binding result [6]: binds
binding result (CHO-K1-T1001细胞表达的人TIGIT [1]): binds

B6: 嵌合抗体mab22c (antibody, human IgG1, kappa, V domains shown)
VH: EVKLVESGGGLVQPGGSLKLSCVASGFTFSSYTMSWVRQTPEKRLELVAEISSSGGSTYYPDTVKGRFTISRDNAKNTLFLQMNSLKSEDTAMYYCARPGLGAWFAYWGQGTLVTVSA
VL: DVLMTQTPLSLPVSLGDQASISCRSSQSIVHNSGNTYLEWYLQKPGQSPKLLIYKVSNRFSGVPDRFSGSGSGTDFTLKISRVEAEDLGIYYCFQFSHVPRTFGGGTKLEIKR
notes: also called 人鼠嵌合抗体mab22c
IC50 ratio to Ref2 (人TIGIT-hFc [7]): 0.51 fold
EC50 ratio to Ref2 (恒河猴TIGIT-mFc [8]): ~2 fold
EC50 [6]: 0.27 nM and 0.585 nM
EC50 (恒河猴TIGIT-mFc [9]): 0.658 nM
EC50 (CHO-K1-T1001细胞表达的人TIGIT [1]): 0.101 nM
EC50 ratio to Ref2 [10]: 0.68 fold
IC50 ratio to Ref1 (人TIGIT-hFc [2]): 0.46 fold
IC50 (人TIGIT-hFc [3]): 0.541 nM
EC50 ratio to Ref2 (CHO-K1-T1001细胞表达的人TIGIT [11]): 0.47 fold
EC50 ratio to Ref1 (恒河猴TIGIT-mFc [12]): ~2 fold

B7: 人源化抗体mab22-h2 (antibody, human IgG1, kappa, V domains shown)
VH: EVQLVESGGGLVQPGGSLRLSCAASGFTFSSYTMSWVRQAPGKGLEWVSEISSSGGSTYYPDTVKGRFTISRDNSKNTLYLQMNSLRAEDTAVYYCARPGLGAWFAYWGQGTLVTVSS
VL: DVVMTQSPLSLPVTPGEPASISCRSSQSIVHNSGNTYLEWYLQKPGQSPKLLIYKVSNRFSGVPDRFSGSGSGTDFTLKISRVEAEDVGVYYCFQFSHVPRTFGGGTKVEIKR
notes: hIgG1, kappa
binding result [6]: binds
binding result (CHO-K1-T1001细胞表达的人TIGIT [1]): binds

B8: IF091 (鼠源单克隆抗体mab22) (antibody, V domains shown)
VH: EVKLVESGGGLVQPGGSLKLSCVASGFTFSSYTMSWVRQTPEKRLELVAEISSSGGSTYYPDTVKGRFTISRDNAKNTLFLQMNSLKSEDTAMYYCARPGLGAWFAYWGQGTLVTVSA
VL: DVLMTQTPLSLPVSLGDQASISCRSSQSIVHNSGNTYLEWYLQKPGQSPKLLIYKVSNRFSGVPDRFSGSGSGTDFTLKISRVEAEDLGIYYCFQFSHVPRTFGGGTKLEIK
notes: Mouse antibody purified from ascites
binding result (小鼠TIGIT-his): no binding (tested: 10μg/mL起始，5倍梯度稀释)
